{
  "source": "paper PMC2199739",
  "key": {"[1]": {"molecular_target": "urokinase-type plasminogen activator receptor (uPAR) on HT 1080 cells (human (endogenous in HT 1080)) (UniProt Q03405)", "experiment": "radioligand binding"}, "[2]": {"molecular_target": "human uPAR overexpressed on MCF-7 cells (clone M5) (human) (UniProt Q03405)", "experiment": "radioligand binding"}},
  "data": [
    {"substance": "^125I-DIP-uPA (radioiodinated two chain urokinase-type plasminogen activator inactivated with diisopropylfluorophosphate) (ligand)", "values": [
      {"measurement": "Kd", "setting": "[1]", "value": 1.2, "unit": "nM"},
      {"measurement": "Kd", "setting": "[2]", "value": 1.2, "unit": "nM"}
    ]}
  ]
}
